Experiment [1] concerns the target T1, huCLL1-Q244-Avi-Tev-His (human, UniProt Q5QGZ9 65-265).
T1 construct: extracellular domain; also called CLL-1 K244Q
T1 sequence (looked up): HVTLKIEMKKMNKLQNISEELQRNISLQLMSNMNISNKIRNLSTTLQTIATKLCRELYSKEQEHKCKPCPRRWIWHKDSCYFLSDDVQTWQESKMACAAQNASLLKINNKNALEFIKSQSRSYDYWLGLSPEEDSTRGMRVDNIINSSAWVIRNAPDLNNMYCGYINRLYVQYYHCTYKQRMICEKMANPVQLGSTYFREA
The experiment can be described thus: BLI. Background: Biolayer interferometry detects binding as a change in optical thickness at a sensor tip.

Experiment [2] has as its target T2, huCLL1-K244-Avi-Tev-His (human, UniProt Q5QGZ9 65-265).
T2 construct: extracellular domain
T2 sequence (looked up): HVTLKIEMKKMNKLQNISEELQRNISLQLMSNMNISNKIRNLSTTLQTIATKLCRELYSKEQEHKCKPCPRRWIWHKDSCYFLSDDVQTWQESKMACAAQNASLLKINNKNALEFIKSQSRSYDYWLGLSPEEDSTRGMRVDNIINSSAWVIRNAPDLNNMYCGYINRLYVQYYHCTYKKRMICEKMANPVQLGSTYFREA
Description: BLI.

B1: Polypeptide No. 178 (scFv, V domains shown)
VH: EVQLLESGGGLVQPGGSLRLSCAASGFTFSSSDMSWVRQAPGKGLEWVSSITGSGDGTYYADSVKGRFTISRDNSKNTLYLQMNSLRAEDTAVYYCIRDWEGIYQWGQGTLVTVSS
VL: DIQMTQSPSSLSASVGDRVTITCRVSQGISSYLNWYQQKPGKAPKLLIYDASNLETGVPSRFSGSGSGTDFTLTISSLQPEDFATYYCQQGYSTPWTFGQGTKLEIKR
notes: scFv
On to B1, for which the binding result in experiment [1] and in experiment [2] was “binds” each time.

B2: Polypeptide No. 180 (scFv, V domains shown)
VH: QVQLVQSGAEVKKPGASVKVSCKASGYTFTSLDINWVRQAPGQGLEWMGSMNPRSGSTAYAQSFQGRVTMTRDTSTSTVYMELSSLRSEDTAVYYCAKSDYGDYLDYWGQGTLVTVSS
VL: DIQMTQSPSSLSASVGDRVTITCRASQSISPWLAWYQQKPGKAPKLLIYDASNLQSGVPSRFSGSGSGTDFTLTISSLQPEDFATYYCQQSYSTPLTFGQGTKLEIKR
notes: scFv
Consider B2, for which the binding result in experiment [1] and in experiment [2] was “binds” throughout.

B3: Polypeptide No. 184 (scFv, V domains shown)
VH: QVQLVQSGAEVKKPGASVKVSCKASGGTFGNYGINWVRQAPGQGLEWMGVINPSSGGTNLAQKFQGRVTMTRDTSTSTVYMELSSLRSEDTAVYYCARSLGWPSPYMDVWGQGTMVTVSS
VL: DIQMTQSPSSLSASVGDRVTITCRASQSISRYLNWYQQKPGKAPKLLIYDASNLETGVPSRFSGSGSGTDFTLTISSLQPEDFATYYCQQSYSTPWTFGQGTKLEIKR
notes: scFv
On to B3, for which the binding result in experiment [1] and in experiment [2] was “binds” each time.

B4: Polypeptide No. 179 (scFv, V domains shown)
VH: QVQLVQSGAEVKKPGASVKVSCKASGGTFSSYAISWVRQAPGQGLEWMGTINPSGGSTNYAQKFQGRVTMTRDTSTSTVYMELSSLRSEDTAVYYCAIGGYDSPYMDVWGKGTTVTVSS
VL: DIQMTQSPSSLSASVGDRVTITCQASQDISNYLNWYQQKPGKAPKLLIYDASNLETGVPSRFSGSGSGTDFTLTISSLQPEDFATYYCQQGYSPPWTFGGGTKVEIKR
notes: scFv
For the molecule B4, the binding result in experiment [1] and in experiment [2] was “binds” throughout.

B5: Polypeptide No. 181 (scFv, V domains shown)
VH: QVQLVQSGAEVKKPGASVKVSCKASGYTFTGYYMHWVRQAPGQGLEWMGVINPSGGSTSYAQKFQGRVTMTRDTSTSTVYMELSSLRSEDTAVYYCARGRTDDAFDIWGQGTLVTVSS
VL: DIQMTQSPSSLSASVGDRVTITCRASQTISSWLAWYQQKPGKAPKLLIYAASTLQSGVPSRFSGSGSGTDFTLTISSLQPEDFATYYCQQSYSIPLTFGGGTKLEIKR
notes: scFv
Turning to B5, the binding result in experiment [1] and in experiment [2] was “binds” throughout.

B6: Polypeptide No. 183 (scFv, V domains shown)
VH: QVQLVQSGAEVKKPGSSVKVSCKASGGTFSSYAISWVRQAPGQGLEWMGGIIPKFGPPNYAPKFQGRVTITADESTSTAYMELSSLRSEDTAVYYCARNSYGDDFDYWGQGTLVTVSS
VL: DIQMTQSPSSLSASVGDRVTITCRASQSISSWLAWYQQKPGKAPKLLIYAASSLQRGVPSRFSGSGSGTDFTLTISSLQPEDFATYYCQQSYSTPLTFGQGTKVEIKR
notes: scFv
As for B6, the binding result in experiment [1] and in experiment [2] was “binds” in each case.

B7: Polypeptide No. 182 (scFv, V domains shown)
VH: QVQLVQSGAEVKKPGASVKVSCKASGYTFTDYYMHWVRQAPGQGLEWLGIINTGAGTTNYAPKFQGRVTMTRDTSTSTVYMELSSLRSEDTAVYYCARGLTSDHFDYWGQGTLVTVSS
VL: DIQMTQSPSSLSASVGDRVTITCRASQNIGPWLAWYQQKPGKAPKLLIYEAFTLQSGVPSRFSGSGSGTDFTLTISSLQPEDFATYYCQQSDNIPITFGQGTKVEIKR
notes: scFv
On to B7, for which the binding result in experiment [1] and in experiment [2] was “binds” throughout.
